From patent US20200157236A1 (CELLDEX THERAPEUTICS, published 2020) come the findings set out here.

The chains are these.
B1: Ab404 (antibody, V domains shown)
VH: EVQLVQSGAEVKKPGASVKLSCKASGYTFTSYWMHWVRQAPGQGLEWIGYIKPSSGYTKYNQKFKDKATLTADKSTSTAYMELRSLRSDDTAVYYCARDYYGSSSWFAYWGQGTLVTVSS
VL: EIVMTQSQATMSTSVGERATLSCKASQNVGTNVAWYQQKPGQSPKALIYSASYRYSGVPARFSGSGSGTDFTLTISSVEPEDFAVYYCQQYNSYPYMYTFGQGTKLEIK
notes: humanized
B2: Ab410 (antibody, V domains shown)
VH: EVQLVQSGAEVKKPGSSVKLSCKASGYTFSSYWMHWVKQAPGQGLEWIGYIKPSSGYTKYAQKFQGRVTLTADKSTSTAYMELSSLRSEDTAVYYCARDYYGSSSWFAYWGQGTLVTVSS
VL: EIVMTQSQATMSTSVGERATLSCKASQNVGTNVAWYQQKPGQSPKALIYSASYRYSGVPARFSGSGSGTDFTLTISSVEPEDFAVYYCQQYNSYPYMYTFGQGTKLEIK
notes: humanized
B3: Ab411 (antibody, V domains shown)
VH: QVQLVQSGAEVAKPGTSVKLSCKASGYTFTSYWMHWVKQAPGQGLEWIGYIKPSSGYTKYNQKFKDKVTLTADKSTSTAYMELSSLRSEDTAVYYCARDYYGSSSWFAYWGQGTLVTVSS
VL: EIVMTQSQATLSTSPGERATLSCKASQNVGTNVAWYQQKPGQAPRALIYSASYRYSGVPARFSGSGSGTDFTLTISSVEPEDFAVYYCQQYNSYPYMYTFGQGTKLEIK
notes: humanized
B4: Ab414 (antibody, V domains shown)
VH: EVQLVQSGAEVKKPGTSVKLSCKASGYTFTSYWMHWVRQARGQRLEWIGYIKPSSGYTKYAQKFQERVTLTADKSTSTAYMELSSLRSEDTAVYYCARDYYGSSSWFAYWGQGTLVTVSS
VL: EIVMTQSQATLSTSPGERATLSCKASQNVGTNVAWYQQKPGQAPRALIYSASYRYSGVPARFSGSGSGTDFTLTISSVEPEDFAVYYCQQYNSYPYMYTFGQGTKLEIK
notes: humanized
B5: Ab415 (antibody, V domains shown)
VH: QVQLVQSGAEVAKPGASVKLSCKASGYTFTSYWMHWVKQAPGQGLEWIGYIKPSSGYTKYNQKFKDKATLTADKSTSTAYMELRSLRSDDTAVYYCARDYYGSSSWFAYWGQGTLVTVSS
VL: EIVMTQSQATLSTSPGERATLSCKASQNVGTNVAWYQQKPGQAPRALIYSASYRYSGVPARFSGSGSGTDFTLTISSVEPEDFAVYYCQQYNSYPYMYTFGQGTKLEIK
notes: humanized
B6: Ab425 (antibody, V domains shown)
VH: EVQLVQSGAEVKKPGTSVKLSCKASGYTFTSSAMQWVKQAPGQGLEWIGYIKPSSGYTKYNQKFKDKATLTADKSTSTAYMELSSLRSEDTAVYYCARDYYGSSSWFAYWGQGTLVTVSS
VL: EIVMTQSPATLSTSPGERATLSCRASQSVSSNLAWYQQKPGQAPRALIYSASYRYSGVPARFSGSGSGTDFTLTISSVEPEDFAVYYCQQYNSYPYMYTFGQGTKLEIK
notes: humanized
B7: Ab416 (antibody, V domains shown)
VH: EVQLVQSGAEVKKPGASVKLSCKASGYTFTSYWMHWVRQAPGQGLEWIGYIKPSSGYTKYNQKFKDKATLTADKSTSTAYMELRSLRSDDTAVYYCARDYYGSSSWFAYWGQGTLVTVSS
VL: EIVMTQSQATLSTSPGERATLSCKASQNVGTNVAWYQQKPGQAPRALIYSASYRYSGVPARFSGSGSGTDFTLTISSVEPEDFAVYYCQQYNSYPYMYTFGQGTKLEIK
notes: humanized
B8: Ab405 (antibody, V domains shown)
VH: EVQLVQSGAEVAKPGASVKLSCKASGYTFTSYWMHWVRQAPGQGLEWIGYIKPSSGYTKYNQKFKDKATLTADKSTSTAYMELRSLRSDDTAVYYCARDYYGSSSWFAYWGQGTLVTVSS
VL: EIVMTQSQATMSTSVGERATLSCKASQNVGTNVAWYQQKPGQSPKALIYSASYRYSGVPARFSGSGSGTDFTLTISSVEPEDFAVYYCQQYNSYPYMYTFGQGTKLEIK
notes: humanized
B9: Ab413 (antibody, V domains shown)
VH: EVQLVQSGAEVKKPGTSVKLSCKASGYTFTSSAMQWVKQAPGQGLEWIGYIKPSSGYTKYNQKFKDKATLTADKSTSTAYMELSSLRSEDTAVYYCARDYYGSSSWFAYWGQGTLVTVSS
VL: EIVMTQSQATLSTSPGERATLSCKASQNVGTNVAWYQQKPGQAPRALIYSASYRYSGVPARFSGSGSGTDFTLTISSVEPEDFAVYYCQQYNSYPYMYTFGQGTKLEIK
notes: humanized
B10: Ab419 (antibody, V domains shown)
VH: QVQLVQSGAEVAKPGSSVKLSCKASGYTFTSYWMHWVKQAPGQGLEWIGYIKPSSGYTKYNQKFKDKATLTADKSTSTAYMELSSLRSEDTAVYYCARDYYGSSSWFAYWGQGTLVTVSS
VL: EIVMTQSQATLSTSPGERATLSCKASQNVGTNVAWYQQKPGQAPRALIYSASYRYSGVPARFSGSGSGTDFTLTISSVEPEDFAVYYCQQYNSYPYMYTFGQGTKLEIK
notes: humanized
B11: Ab422 (antibody, V domains shown)
VH: EVQLVQSGAEVKKPGSSVKLSCKASGYTFSSYWMHWVKQAPGQGLEWIGYIKPSSGYTKYAQKFQGRVTLTADKSTSTAYMELSSLRSEDTAVYYCARDYYGSSSWFAYWGQGTLVTVSS
VL: EIVMTQSQATLSTSPGERATLSCKASQNVGTNVAWYQQKPGQAPRALIYSASYRYSGVPARFSGSGSGTDFTLTISSVEPEDFAVYYCQQYNSYPYMYTFGQGTKLEIK
notes: humanized
B12: Ab408 (antibody, V domains shown)
VH: EVQLVQSGAEVKKPGSSVKLSCKASGYTFTSYWMHWVRQAPGQGLEWIGYIKPSSGYTKYNQKFKDKATLTADKSTSTAYMELSSLRSEDTAVYYCARDYYGSSSWFAYWGQGTLVTVSS
VL: EIVMTQSQATMSTSVGERATLSCKASQNVGTNVAWYQQKPGQSPKALIYSASYRYSGVPARFSGSGSGTDFTLTISSVEPEDFAVYYCQQYNSYPYMYTFGQGTKLEIK
notes: humanized
B13: Ab421 (antibody, V domains shown)
VH: EVQLVQSGAEVKKPGSSVKVSCKASGYTFSSYWMHWVRQAPGQGLEWIGYIKPSSGYTKYNQKFKDKATLTADKSTSTAYMELSSLRSEDTAVYYCARDYYGSSSWFAYWGQGTLVTVSS
VL: EIVMTQSQATLSTSPGERATLSCKASQNVGTNVAWYQQKPGQAPRALIYSASYRYSGVPARFSGSGSGTDFTLTISSVEPEDFAVYYCQQYNSYPYMYTFGQGTKLEIK
notes: humanized
B14: Ab412 (antibody, V domains shown)
VH: EVQLVQSGPEVKKPGTSVKLSCKASGYTFTSYWMHWVRQARGQRLEWIGYIKPSSGYTKYNQKFKDRATLTADKSTSTAYMELSSLRSEDTAVYYCARDYYGSSSWFAYWGQGTLVTVSS
VL: EIVMTQSQATLSTSPGERATLSCKASQNVGTNVAWYQQKPGQAPRALIYSASYRYSGVPARFSGSGSGTDFTLTISSVEPEDFAVYYCQQYNSYPYMYTFGQGTKLEIK
notes: humanized
B15: Ab423 (antibody, V domains shown)
VH: QVQLVQSGAEVAKPGTSVKLSCKASGYTFTSYWMHWVKQAPGQGLEWIGYIKPSSGYTKYNQKFKDKVTLTADKSTSTAYMELSSLRSEDTAVYYCARDYYGSSSWFAYWGQGTLVTVSS
VL: EIVMTQSPATLSTSPGERATLSCRASQSVSSNLAWYQQKPGQAPRALIYSASYRYSGVPARFSGSGSGTDFTLTISSVEPEDFAVYYCQQYNSYPYMYTFGQGTKLEIK
notes: humanized
B16: Ab417 (antibody, V domains shown)
VH: EVQLVQSGAEVAKPGASVKLSCKASGYTFTSYWMHWVRQAPGQGLEWIGYIKPSSGYTKYNQKFKDKATLTADKSTSTAYMELRSLRSDDTAVYYCARDYYGSSSWFAYWGQGTLVTVSS
VL: EIVMTQSQATLSTSPGERATLSCKASQNVGTNVAWYQQKPGQAPRALIYSASYRYSGVPARFSGSGSGTDFTLTISSVEPEDFAVYYCQQYNSYPYMYTFGQGTKLEIK
notes: humanized
B17: Ab409 (antibody, V domains shown)
VH: EVQLVQSGAEVKKPGSSVKVSCKASGYTFSSYWMHWVRQAPGQGLEWIGYIKPSSGYTKYNQKFKDKATLTADKSTSTAYMELSSLRSEDTAVYYCARDYYGSSSWFAYWGQGTLVTVSS
VL: EIVMTQSQATMSTSVGERATLSCKASQNVGTNVAWYQQKPGQSPKALIYSASYRYSGVPARFSGSGSGTDFTLTISSVEPEDFAVYYCQQYNSYPYMYTFGQGTKLEIK
notes: humanized
B18: Ab407 (antibody, V domains shown)
VH: QVQLVQSGAEVAKPGSSVKLSCKASGYTFTSYWMHWVKQAPGQGLEWIGYIKPSSGYTKYNQKFKDKATLTADKSTSTAYMELSSLRSEDTAVYYCARDYYGSSSWFAYWGQGTLVTVSS
VL: EIVMTQSQATMSTSVGERATLSCKASQNVGTNVAWYQQKPGQSPKALIYSASYRYSGVPARFSGSGSGTDFTLTISSVEPEDFAVYYCQQYNSYPYMYTFGQGTKLEIK
notes: humanized
B19: Ab427 (antibody, V domains shown)
VH: QVQLVQSGAEVAKPGASVKLSCKASGYTFTSYWMHWVKQAPGQGLEWIGYIKPSSGYTKYNQKFKDKATLTADKSTSTAYMELRSLRSDDTAVYYCARDYYGSSSWFAYWGQGTLVTVSS
VL: EIVMTQSPATLSTSPGERATLSCRASQSVSSNLAWYQQKPGQAPRALIYSASYRYSGVPARFSGSGSGTDFTLTISSVEPEDFAVYYCQQYNSYPYMYTFGQGTKLEIK
notes: humanized
B20: Ab424 (antibody, V domains shown)
VH: EVQLVQSGPEVKKPGTSVKLSCKASGYTFTSYWMHWVRQARGQRLEWIGYIKPSSGYTKYNQKFKDRATLTADKSTSTAYMELSSLRSEDTAVYYCARDYYGSSSWFAYWGQGTLVTVSS
VL: EIVMTQSPATLSTSPGERATLSCRASQSVSSNLAWYQQKPGQAPRALIYSASYRYSGVPARFSGSGSGTDFTLTISSVEPEDFAVYYCQQYNSYPYMYTFGQGTKLEIK
notes: humanized
B21: Ab418 (antibody, V domains shown)
VH: EVQLVQSGAEVKKPGASVKLSCKASGYTFTSYWMHWVRQAPGQGLEWIGYIKPSSGYTKYAQKLQGRVTLTADKSTSTAYMELRSLRSDDTAVYYCARDYYGSSSWFAYWGQGTLVTVSS
VL: EIVMTQSQATLSTSPGERATLSCKASQNVGTNVAWYQQKPGQAPRALIYSASYRYSGVPARFSGSGSGTDFTLTISSVEPEDFAVYYCQQYNSYPYMYTFGQGTKLEIK
notes: humanized

For this assay, the target named is T1, purified ALK protein (BLitz, Table 20) (Homo sapiens (Human), UniProt Q9UM73 19-1038, limits assumed).
T1 construct: also called purified ALK proteins
T1 sequence (Q9UM73 19-1038 limits assumed): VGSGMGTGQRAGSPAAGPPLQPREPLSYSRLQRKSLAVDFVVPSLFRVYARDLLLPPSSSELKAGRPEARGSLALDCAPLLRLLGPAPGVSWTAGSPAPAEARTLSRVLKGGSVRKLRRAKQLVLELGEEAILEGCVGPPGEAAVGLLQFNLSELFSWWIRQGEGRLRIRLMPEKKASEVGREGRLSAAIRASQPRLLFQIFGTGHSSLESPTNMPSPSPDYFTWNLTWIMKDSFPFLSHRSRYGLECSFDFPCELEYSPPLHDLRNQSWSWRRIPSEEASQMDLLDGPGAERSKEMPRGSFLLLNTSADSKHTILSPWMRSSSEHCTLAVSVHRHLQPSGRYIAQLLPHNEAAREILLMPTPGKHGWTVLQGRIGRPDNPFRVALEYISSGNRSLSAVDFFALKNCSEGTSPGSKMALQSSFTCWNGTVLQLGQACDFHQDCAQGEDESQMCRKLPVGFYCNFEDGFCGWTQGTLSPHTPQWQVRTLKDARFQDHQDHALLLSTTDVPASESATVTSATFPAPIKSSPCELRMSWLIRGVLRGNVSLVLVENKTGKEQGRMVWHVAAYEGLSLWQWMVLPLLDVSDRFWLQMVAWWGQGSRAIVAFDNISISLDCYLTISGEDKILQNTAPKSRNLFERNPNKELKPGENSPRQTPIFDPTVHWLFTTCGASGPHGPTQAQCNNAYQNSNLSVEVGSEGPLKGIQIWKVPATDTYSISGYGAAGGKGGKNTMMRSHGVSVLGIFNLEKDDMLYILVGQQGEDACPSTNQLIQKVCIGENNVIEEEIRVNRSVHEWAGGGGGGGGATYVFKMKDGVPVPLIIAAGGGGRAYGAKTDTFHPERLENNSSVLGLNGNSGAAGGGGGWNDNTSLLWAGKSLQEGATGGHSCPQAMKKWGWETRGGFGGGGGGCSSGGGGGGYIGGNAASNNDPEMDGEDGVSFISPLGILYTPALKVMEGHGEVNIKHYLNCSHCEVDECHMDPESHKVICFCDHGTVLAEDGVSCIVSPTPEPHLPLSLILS
Description: BLI (BLitz), mAb on Protein A tip, purified ALK in solution. As to the method:
Kinetic measurements of the monovalent affinity of the 96 humanized ALK antibody variants (Ab351-Ab446) were collected. Affinity ranking was performed using a BLitz® System (ForteBio, Menlo Park, Calif.). Humanized anti-ALK antibodies were immobilized at 0.5 mg/mL using Protein A tips. Once baseline stability was ensured, purified ALK proteins at 70 μg/mL were added. The resulting kinetic data were fit to a single binding site equation, from which the quoted monovalent KD values were derived.
In turn, B1 had a Kd of 132 nM.

Take B2: the affinity, expressed as Kd, was 144 nM.

The molecule B3 gave a dissociation constant (Kd) of 143 nM.

In turn, B4 displayed a Kd of 142 nM.

The molecule B5 gave a Kd of 128 nM.

With B6, the affinity, expressed as Kd, was 2290 nM.

B7 gave a dissociation constant (Kd) of 180 nM.

B8 registered a Kd of 195 nM.

For the molecule B9, the Kd came to 1660 nM.

B10 displayed a Kd of 107 nM.

For the molecule B11, the affinity, expressed as Kd, was 173 nM.

Consider B12, for which the Kd amounted to 144 nM.

Consider B13, for which binding was characterised by a dissociation constant (Kd) of 280 nM.

In turn, B14 yielded a Kd of 111 nM.

The molecule B15 displayed an equilibrium dissociation constant (Kd) of 266 nM.

On to B16, for which the dissociation constant (Kd) came to 170 nM.

In the case of B17, binding was put at a Kd of 208 nM.

Consider B18, for which the Kd turned out to be 109 nM.

As for B19, binding was put at a Kd of 162 nM.

Molecule B20 came in with a Kd of 247 nM.

The molecule B21 showed a dissociation constant Kd of 131 nM.
